Experimental data as given in the supplement of paper PMC10065799, “High-throughput profiling of sequence recognition by tyrosine kinases and SH2 domains using bacterial peptide display” (eLife, 2023).

Target: EPHB1 (UniProt P54762)
Assay: phosphorylation enrichment, bacterial display (enrichment ratio); higher = better substrate or ligand; peptides without Tyr show the background
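Further: 11-residue human phosphosite peptides and single-mutation variants displayed on the E. coli surface, counted by deep sequencing, each peptide's frequency after selection divided by its frequency in the unselected input library; frequency after pTyr selection over input frequency; kinase dosed for 20-30% of maximal phosphorylation in three min.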

Sequence of EPHB1 (P54762 whole entry, looked up): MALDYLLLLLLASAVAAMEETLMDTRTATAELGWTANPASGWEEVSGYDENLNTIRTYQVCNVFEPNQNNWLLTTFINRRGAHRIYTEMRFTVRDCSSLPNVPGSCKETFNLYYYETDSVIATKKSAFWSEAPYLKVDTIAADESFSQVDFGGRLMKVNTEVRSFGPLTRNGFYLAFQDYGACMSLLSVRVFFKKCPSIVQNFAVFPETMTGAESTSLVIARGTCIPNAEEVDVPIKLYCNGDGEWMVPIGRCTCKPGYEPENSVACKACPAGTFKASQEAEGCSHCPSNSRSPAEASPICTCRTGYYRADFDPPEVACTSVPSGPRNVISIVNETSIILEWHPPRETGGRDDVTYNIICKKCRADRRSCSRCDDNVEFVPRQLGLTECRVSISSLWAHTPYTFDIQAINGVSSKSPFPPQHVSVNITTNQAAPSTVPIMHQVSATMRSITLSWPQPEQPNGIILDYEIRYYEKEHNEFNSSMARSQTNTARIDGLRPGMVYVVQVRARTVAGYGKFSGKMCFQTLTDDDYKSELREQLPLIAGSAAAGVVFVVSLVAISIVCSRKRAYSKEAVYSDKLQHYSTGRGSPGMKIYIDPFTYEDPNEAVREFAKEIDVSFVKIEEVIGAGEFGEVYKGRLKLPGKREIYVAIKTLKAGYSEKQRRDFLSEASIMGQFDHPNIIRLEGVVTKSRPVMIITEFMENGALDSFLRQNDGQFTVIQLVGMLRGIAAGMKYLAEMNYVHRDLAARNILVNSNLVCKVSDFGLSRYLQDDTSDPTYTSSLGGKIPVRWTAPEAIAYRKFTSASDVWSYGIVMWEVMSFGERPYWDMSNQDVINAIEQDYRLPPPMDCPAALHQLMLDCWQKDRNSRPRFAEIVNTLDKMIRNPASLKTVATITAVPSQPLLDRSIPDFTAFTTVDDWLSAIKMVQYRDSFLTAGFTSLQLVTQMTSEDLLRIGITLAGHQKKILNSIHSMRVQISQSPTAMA

Sequence	phosphorylation enrichment
SFVMVYEGNAR [INSR_Y1038_G1035V]	0.621
ASNFNYFYHRE [KCNA1_Y413_V408A]	0.582
SVVVPYEPREV [TP53_Y220_P223R]	0.53
SMGMKYLEEKN [ZAP70_Y451]	0.518
FFRDGYMPRQF [GSS_Y270_YF]	0.415
FVHDNYVIRRT [CPS1_Y1450]	0.376
PPLMLYNPTTY [EGFR_Y270]	1
TYGVVYRAKDK [CDK11B_Y453]	0.75
WPLKWYAPECI [ZAP70_Y506]	0.886
PQQLWYTHKKK [UBTF_Y207_E210K]	0.774
TRVMEYISCLD [CLTCL1_Y1043_R1046C]	0.661
VEDQFYCVDCF [FHL1_Y208_YF]	0.748
EVDETYVPKKF [ALB_Y521_E525K]	0.685
KDHRDYKFQPR [SOX9_Y172_P170R_YF]	0.426
EVVGRYSLHNA [MLH1_Y183_V185L]	0.421
GNKENYGLPQP [BUB1_Y538]	0.489
GGQDVYGDFGG [Probound]	0.718

Sequence	phosphorylation enrichment
SKEPFYVRCIK [MYO1D_Y586_YF]	0.951
ADKSAYLMGLN [MYH7_Y386]	0.405
FSDQVYRQRRK [TH_Y230]	0.557
QMVGKYASSYM [AVPR2_Y124_M123K]	0.336
TAPYNYSYIFK [RAB14_Y8]	9.69
RALLNYIASKY [GSTA3_Y74_I71L]	0.551
DVSVVYSEVKT [FCRL4_Y493]	0.631
PLDGEYFTLPI [TP53_Y327_Q331P]	16.6
MSRDVYSTDCY [NTRK2_Y702_Y706C]	0.718
FGGTVYHSPVS [PRC1_Y511]	0.535
IEEGTYGVAYR [CDK11B_Y449_V452A]	0.686
KEDSVYGSQSV [NFKB2_Y868_A867V]	0.449
FGSIMYEFVGK [SLC18A1_Y251_V249I]	1.73
ADCRYYTFPQM [GAMT_Y223_A224T]	4.67
ETRWNYHFEVV [GCNT3_Y267_K266N]	0.971
FFIMMYTGSSV [DNAJC13_Y1131_N1135S]	0.62

Test system: c-Abl (mouse)
Assay: as above

Sequence	phosphorylation enrichment
SFVMVYEGNAR [INSR_Y1038_G1035V]	0.618
ASNFNYFYHRE [KCNA1_Y413_V408A]	0.476
SVVVPYEPREV [TP53_Y220_P223R]	0.656
SMGMKYLEEKN [ZAP70_Y451]	0.644
FFRDGYMPRQF [GSS_Y270_YF]	0.482
FVHDNYVIRRT [CPS1_Y1450]	0.418
PPLMLYNPTTY [EGFR_Y270]	0.541
TYGVVYRAKDK [CDK11B_Y453]	0.531
WPLKWYAPECI [ZAP70_Y506]	0.666
PQQLWYTHKKK [UBTF_Y207_E210K]	0.981
TRVMEYISCLD [CLTCL1_Y1043_R1046C]	1.08
VEDQFYCVDCF [FHL1_Y208_YF]	0.867
EVDETYVPKKF [ALB_Y521_E525K]	0.607
KDHRDYKFQPR [SOX9_Y172_P170R_YF]	0.683
EVVGRYSLHNA [MLH1_Y183_V185L]	0.371
GNKENYGLPQP [BUB1_Y538]	1.26
GGQDVYGDFGG [Probound]	0.939

Sequence	phosphorylation enrichment
SKEPFYVRCIK [MYO1D_Y586_YF]	0.727
ADKSAYLMGLN [MYH7_Y386]	0.467
FSDQVYRQRRK [TH_Y230]	0.735
QMVGKYASSYM [AVPR2_Y124_M123K]	0.786
TAPYNYSYIFK [RAB14_Y8]	0.717
RALLNYIASKY [GSTA3_Y74_I71L]	0.578
DVSVVYSEVKT [FCRL4_Y493]	1.22
PLDGEYFTLPI [TP53_Y327_Q331P]	25
MSRDVYSTDCY [NTRK2_Y702_Y706C]	0.993
FGGTVYHSPVS [PRC1_Y511]	3.96
IEEGTYGVAYR [CDK11B_Y449_V452A]	0.836
KEDSVYGSQSV [NFKB2_Y868_A867V]	0.608
FGSIMYEFVGK [SLC18A1_Y251_V249I]	0.508
ADCRYYTFPQM [GAMT_Y223_A224T]	1.99
ETRWNYHFEVV [GCNT3_Y267_K266N]	0.904
FFIMMYTGSSV [DNAJC13_Y1131_N1135S]	0.743

Target: EPHB2 (UniProt P29323)
Sequence (P29323 whole entry, looked up): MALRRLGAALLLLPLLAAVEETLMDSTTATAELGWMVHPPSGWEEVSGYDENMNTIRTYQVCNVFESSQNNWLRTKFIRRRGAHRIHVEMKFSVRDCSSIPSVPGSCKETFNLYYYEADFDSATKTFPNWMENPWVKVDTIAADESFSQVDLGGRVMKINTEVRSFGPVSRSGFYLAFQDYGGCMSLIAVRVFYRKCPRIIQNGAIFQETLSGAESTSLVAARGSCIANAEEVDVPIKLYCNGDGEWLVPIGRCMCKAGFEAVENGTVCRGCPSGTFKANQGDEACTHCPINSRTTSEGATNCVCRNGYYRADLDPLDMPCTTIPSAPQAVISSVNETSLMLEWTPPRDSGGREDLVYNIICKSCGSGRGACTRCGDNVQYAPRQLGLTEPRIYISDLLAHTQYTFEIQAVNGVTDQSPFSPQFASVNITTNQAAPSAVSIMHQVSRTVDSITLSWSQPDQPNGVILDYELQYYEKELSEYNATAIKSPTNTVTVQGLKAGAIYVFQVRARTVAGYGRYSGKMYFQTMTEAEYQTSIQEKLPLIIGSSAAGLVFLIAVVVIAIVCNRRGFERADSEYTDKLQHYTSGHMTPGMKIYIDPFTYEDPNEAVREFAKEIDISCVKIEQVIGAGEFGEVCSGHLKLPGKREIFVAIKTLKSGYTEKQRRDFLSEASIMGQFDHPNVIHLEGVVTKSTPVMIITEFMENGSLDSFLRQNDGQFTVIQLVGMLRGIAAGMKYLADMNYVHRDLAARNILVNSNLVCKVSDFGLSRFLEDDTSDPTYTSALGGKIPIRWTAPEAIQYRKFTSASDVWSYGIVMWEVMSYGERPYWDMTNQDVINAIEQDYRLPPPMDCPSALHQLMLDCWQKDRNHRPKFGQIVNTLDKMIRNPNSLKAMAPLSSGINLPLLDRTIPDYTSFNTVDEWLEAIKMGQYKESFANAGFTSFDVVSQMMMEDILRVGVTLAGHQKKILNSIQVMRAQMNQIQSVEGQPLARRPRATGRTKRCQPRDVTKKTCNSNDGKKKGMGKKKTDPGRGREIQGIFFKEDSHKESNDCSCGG
Assay: as above

Sequence	phosphorylation enrichment
SFVMVYEGNAR [INSR_Y1038_G1035V]	0.683
ASNFNYFYHRE [KCNA1_Y413_V408A]	0.65
SVVVPYEPREV [TP53_Y220_P223R]	0.506
SMGMKYLEEKN [ZAP70_Y451]	0.463
FFRDGYMPRQF [GSS_Y270_YF]	0.4
FVHDNYVIRRT [CPS1_Y1450]	0.499
PPLMLYNPTTY [EGFR_Y270]	0.718
TYGVVYRAKDK [CDK11B_Y453]	0.59
WPLKWYAPECI [ZAP70_Y506]	0.766
PQQLWYTHKKK [UBTF_Y207_E210K]	1.14
TRVMEYISCLD [CLTCL1_Y1043_R1046C]	0.749
VEDQFYCVDCF [FHL1_Y208_YF]	0.697
EVDETYVPKKF [ALB_Y521_E525K]	0.372
KDHRDYKFQPR [SOX9_Y172_P170R_YF]	0.346
EVVGRYSLHNA [MLH1_Y183_V185L]	0.368
GNKENYGLPQP [BUB1_Y538]	0.533
GGQDVYGDFGG [Probound]	0.883

Sequence	phosphorylation enrichment
SKEPFYVRCIK [MYO1D_Y586_YF]	0.56
ADKSAYLMGLN [MYH7_Y386]	0.465
FSDQVYRQRRK [TH_Y230]	0.663
QMVGKYASSYM [AVPR2_Y124_M123K]	0.401
TAPYNYSYIFK [RAB14_Y8]	3.26
RALLNYIASKY [GSTA3_Y74_I71L]	0.521
DVSVVYSEVKT [FCRL4_Y493]	0.592
PLDGEYFTLPI [TP53_Y327_Q331P]	19.1
MSRDVYSTDCY [NTRK2_Y702_Y706C]	0.701
FGGTVYHSPVS [PRC1_Y511]	0.418
IEEGTYGVAYR [CDK11B_Y449_V452A]	2.44
KEDSVYGSQSV [NFKB2_Y868_A867V]	0.41
FGSIMYEFVGK [SLC18A1_Y251_V249I]	1.04
ADCRYYTFPQM [GAMT_Y223_A224T]	2.84
ETRWNYHFEVV [GCNT3_Y267_K266N]	0.496
FFIMMYTGSSV [DNAJC13_Y1131_N1135S]	0.468

Test system: c-Src
Assay: as above

Sequence	phosphorylation enrichment
SFVMVYEGNAR [INSR_Y1038_G1035V]	0.77
ASNFNYFYHRE [KCNA1_Y413_V408A]	0.497
SVVVPYEPREV [TP53_Y220_P223R]	0.472
SMGMKYLEEKN [ZAP70_Y451]	0.434
FFRDGYMPRQF [GSS_Y270_YF]	0.345
FVHDNYVIRRT [CPS1_Y1450]	0.536
PPLMLYNPTTY [EGFR_Y270]	0.645
TYGVVYRAKDK [CDK11B_Y453]	8.45
WPLKWYAPECI [ZAP70_Y506]	0.425
PQQLWYTHKKK [UBTF_Y207_E210K]	0.7
TRVMEYISCLD [CLTCL1_Y1043_R1046C]	0.457
VEDQFYCVDCF [FHL1_Y208_YF]	1.73
EVDETYVPKKF [ALB_Y521_E525K]	0.408
KDHRDYKFQPR [SOX9_Y172_P170R_YF]	0.423
EVVGRYSLHNA [MLH1_Y183_V185L]	0.364
GNKENYGLPQP [BUB1_Y538]	0.392
GGQDVYGDFGG [Probound]	5.08

Sequence	phosphorylation enrichment
SKEPFYVRCIK [MYO1D_Y586_YF]	0.354
ADKSAYLMGLN [MYH7_Y386]	0.535
FSDQVYRQRRK [TH_Y230]	0.774
QMVGKYASSYM [AVPR2_Y124_M123K]	0.459
TAPYNYSYIFK [RAB14_Y8]	0.772
RALLNYIASKY [GSTA3_Y74_I71L]	0.381
DVSVVYSEVKT [FCRL4_Y493]	4.13
PLDGEYFTLPI [TP53_Y327_Q331P]	9.02
MSRDVYSTDCY [NTRK2_Y702_Y706C]	2.32
FGGTVYHSPVS [PRC1_Y511]	0.771
IEEGTYGVAYR [CDK11B_Y449_V452A]	5.77
KEDSVYGSQSV [NFKB2_Y868_A867V]	1.35
FGSIMYEFVGK [SLC18A1_Y251_V249I]	1.44
ADCRYYTFPQM [GAMT_Y223_A224T]	4.77
ETRWNYHFEVV [GCNT3_Y267_K266N]	0.433
FFIMMYTGSSV [DNAJC13_Y1131_N1135S]	0.342
